Data published in PMC11036628.

Biological target: Dectin-1 (mouse (endogenous in bone marrow-derived dendritic cells)) (UniProt Q6QLQ4)
Chain of UniProt Q6QLQ4 (Q6QLQ4 whole entry): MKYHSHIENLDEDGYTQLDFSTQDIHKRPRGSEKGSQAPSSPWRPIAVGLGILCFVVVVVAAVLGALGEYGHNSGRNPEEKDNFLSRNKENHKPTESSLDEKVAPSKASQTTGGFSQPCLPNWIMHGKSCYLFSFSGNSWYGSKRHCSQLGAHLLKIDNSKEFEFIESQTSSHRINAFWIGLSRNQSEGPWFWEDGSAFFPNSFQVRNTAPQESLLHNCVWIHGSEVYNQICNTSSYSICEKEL

IL-10 transcripts by quantitative PCR on NLGP addition to tumour-conditioned mBMDCs; counterbalanced by Laminarin, Dectin-1 siRNA and both: 4.5 fold
IL-12p35 transcripts by quantitative PCR on NLGP addition to tumour-conditioned mBMDCs; counterbalanced by Laminarin, Dectin-1 siRNA and both: 1.5 fold
Substance: Neem Leaf Glycoprotein (natural protein)
